US9376499B2, “PAR-1 activation by metalloproteinase-1 (MMP-1)” (Tufts Medical Center, Inc., priority 2009, dated 2016)
No end group written: not given here.

Experiments:
PAR1 [1] = target: T1, PAR1 (Homo sapiens, UniProt P25116); assay: p38 MAPK activation in platelets by tethered-ligand peptides; assay type: cell-based; conditions: 5 min, 37° C.
T1 construct: able to cleave PAR1 on the surface of human platelets; endogenous in cells; host or cells: gel-filtered or washed human platelets
T1 sequence (P25116 22-425): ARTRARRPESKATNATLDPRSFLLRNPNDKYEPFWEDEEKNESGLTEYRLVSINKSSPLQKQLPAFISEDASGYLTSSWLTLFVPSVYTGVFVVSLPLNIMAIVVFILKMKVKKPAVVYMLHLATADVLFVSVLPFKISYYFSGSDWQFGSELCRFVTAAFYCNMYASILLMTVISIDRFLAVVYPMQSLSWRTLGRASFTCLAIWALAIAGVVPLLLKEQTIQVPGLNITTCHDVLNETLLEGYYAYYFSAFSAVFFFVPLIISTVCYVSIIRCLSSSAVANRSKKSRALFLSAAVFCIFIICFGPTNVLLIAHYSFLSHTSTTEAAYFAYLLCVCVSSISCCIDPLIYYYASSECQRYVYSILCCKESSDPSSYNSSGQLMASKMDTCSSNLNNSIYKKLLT
Method: In FIG. 3B, the effect of the […] peptide (PR-TRAP) on p38 MAPK in platelets was measured. Platelets were stimulated with different concentrations of PR-TRAP, RP-TRAP or TRAP as indicated for 5 min at 37° C. Platelets were lysed with Laemmli sample buffer and proteins assessed by Western blot of p38 MAPK activity with phospho-specific p38 MAPK antibody or total p38MAPK antibody.

PAR1 [2] = target: T1, PAR1; assay: Platelet shape change (decrease in light transmittance); assay type: cell-based; conditions: washed human platelets pretreated with 2 mM EGTA
Method: In FIG. 3C, the ability of the […] peptide (PR-TRAP) to induce a change in platelet shape was determined. Washed human platelets were pretreated with 2 mM EGTA and then treated with the indicated agonists in the presence or absence of 1 μM RWJ-56110 while stirring at 1100 rpm. The decrease in light transmittance is an indication of the platelet shape change reaction.
In FIG. 4B, the ability of MMP-1 to induce platelet shape change was determined. Washed human platelets were pretreated with 2 mM EGTA and then challenged with MMP-1 in the presence or absence of 1 μM RWJ-56110 while stirring at 1100 rpm. Shape change was measured as described above.

PAR1 [3] = target: T1, PAR1; assay: PAR1-dependent RhoA activation (Rho-GTP) in platelets by tethered-ligand peptides; assay type: cell-based; conditions: 30 μM peptide, 5 min, 37° C.
Method: Gel-filtered human platelets, supplemented with 0.3 mg/mL fibrinogen, were treated with 0.2% DMSO vehicle, or 30 μM SFLLRN (TRAP), PR-TRAP or reversed peptide (RP-TRAP), for 5 min at 37° C. in presence or absence of 1 μM RWJ-56110 as indicated. Platelets were lysed and Rho-GTP and total Rho was determined by Western analysis as described in the Experimental Procedures. Western bands were quantified by densitometry and results expressed relative to fold-increase from basal.

platelets [4] = assay: Platelet thrombus formation on collagen surface under arterial flow, heparin-anticoagulated whole blood; assay type: cell-based, human; conditions: heparin 10 U/mL; shear rate 1,000 s-1; FN-439 3 μM, RWJ-56110 1 μM, pepducins 3 μM, aspirin 1 mM
Method: Following incubation with inhibitors, the blood was perfused over a glass slide coated with fibrillar collagen type I.
A flow chamber (Glycotech) with Type-I fibrillar collagen-coated glass slides was mounted on the stage of an IMT-2 inverted microscope (Olympus) equipped with Retiga 1300 digital camera (QImaging) and 40× objective. One of the flow chamber inlets was connected to a syringe pump (Harvard Apparatus) calibrated to create a shear rate of 1,000^s-1. The whole blood pretreated with the various pharmacologic inhibitors was then perfused over the collagen-coated glass slide. After 2-15 min of perfusion, blood was removed from the flow chamber by gentle displacement with PIPES buffer and images of 8-10 fields were acquired using OpenLab software (Improvision). Acquired images were further analyzed using NIH Image 1.63 software. Images were first sharpened and the edges of separate platelets and platelet aggregates were determined. Following the adjustment of threshold, images were converted into the binary format, and the particle analysis function was activated to highlight the regions covered by platelets with the sensitivity set to one single adherent thrombocyte. For the conversion of pixels into square micrometers, a calibration curve was built using 2.5, 6, 20, 25, and 45 μm polystyrene beads (Polyscience) using acquisition conditions identical to the experimental. The mean area of formed thrombus was determined at 7 min. Area measurements in FIG. 6B represent the mean±s.e. of three separate experiments from five different blood donors.

platelets [5] = assay: Collagen-dependent aggregation of gel-filtered human platelets (light transmittance); assay type: cell-based; conditions: 5 μg/ml collagen; 1,10-PA 100 μM, MMP-200 200 nM, FN-439 3 μM, RWJ-56110 1 μM, PAR1 Ab 75 μg/ml, pepducins 3 μM, PPACK 200 μM, hirudin 1 U/ml
Method: Platelet pellets and their supernatants were prepared as follows. […] following established informed consent procedures. […] Alternatively, whole blood was obtained from Hartley Sprague guinea pigs (drawn from the vena cava) into 3% citrate plus 10 U/ml heparin. Washed platelets from the guinea pigs were prepared in PIPES buffer. Platelet aggregation was measured with a Chronolog 560VS/490-2D aggregometer using modified PIPES buffer as a blank. Samples were incubated for 5 min in the presence of inhibitors and 1.8 mM CaCl2 prior to addition of agonist. All reactions were in final volumes of 250 μl at 37° C. while stirring at 900 rpm.
The effect of pharmacologic blockage of metalloproteases or PAR1 on collagen-dependent platelet aggregation was then tested (see FIG. 5). Gel-filtered platelets from healthy individuals (supplemented with 0.3 mg/ml fibrinogen) were challenged with 5 μg/ml collagen in the presence or absence (0.2% DMSO vehicle) of the indicated inhibitors and allowed to stir at 900 rpm in an aggregometer cuvette (250 μL) at 37° C.
In FIG. 5A, platelet aggregation was monitored by light transmittance.

[6] = Carotid artery FeCl3 injury arterial thrombosis model; assay type: in vivo, guinea pig; conditions: bivalirudin 0.18 mg/kg i.v.; from 13 min without
Description: To assess the efficacy on arterial thrombosis by blockade of thrombin, MMP-1, or PAR1, a standard carotid artery FeCl3 injury model was used in guinea pigs. FeCl3 causes denudation of the artery and exposure of type I collagen and other subendothelial matrix proteins. The effects of blocking thrombin with bivalirudin, MMP-1 with FN-439, and PAR1 with either the small molecule antagonist RWJ-56110 or the P1pal-7 pepducin on arterial thrombosis were then compared using a dopier probe.
For these arterial thrombosis experiments, 10 min after i.v. administration of vehicle (−), bivalirudin, RWJ-56110, P1 pal-7 or FN-439 (n=4-5) through the jugular vein at the indicated concentrations, the right carotid arteries were injured for 20 min using a 24 mm^2 piece of Bio-Rad Trans-Blot paper soaked in 20% FeCl3. Arterial flow 5 mm distal to the site of injury was measured with a 0.5 V Doppler probe (Transonic Systems). An arterial occlusion was defined as a flow rate of <0.01 V for ≧5 min. Doppler measurements were terminated at the 30 min time point following injury (* designates p<0.05).

agonist activity, platelet shape change (PAR1 [2])	Compound	inhibition (loss) of collagen-induced platelet aggregation (platelets [5])	other results
did not stimulate	RP-TRAP: control peptide in which the first two amino acid residues were reversed (RPSFLLRN; PAR1 N-terminal extracellular mutant)	–	agonist activity, p38 MAPK signaling in platelets (PAR1 [1]): did not stimulate; agonist activity, PAR1-dependent Rho signaling in platelets (PAR1 [3]): did not stimulate
–	P1pal-12: PAR1 i3 loop pepducin lipopeptide, RCLSSSAVANRS (SEQ ID NO. 3), palmitate (also: palmitate, site not given here)	identical levels of inhibition as blocking MMP-1	attenuation of growth rate and size of platelet aggregate strings (platelets [4]): ~75%
–	NC(N)=NCCC[C@H](NC(=O)[C@@H]1CCCN1C(=O)[C@H](N)Cc1ccccc1)C(=O)CCl [PPACK]	no effect	–
–	P4pal-10: PAR4 pepducin lipopeptide (SGRRYGHALR; also: lipopeptide ('pal'), lipid and site not given here)	~10%	–
partial agonist activity	R-TRAP: peptide corresponding to cleavage at LDP40↓R41SFLLRN (RSFLLRN)	–	–
nearly no activity	DPR-TRAP: peptide corresponding to cleavage at L38↓D39PRSFLLRN (DPRSFLLRN; PAR1 N-terminal extracellular mutant)	–	–
activated changes in platelet shape	PR-TRAP: synthetic peptide PRSFLLRN (SEQ ID NO:1), MMP1-generated tethered ligand of PAR1 (listed as Homo sapiens)	–	agonist activity, p38 MAPK signaling in platelets (PAR1 [1]): full agonist; agonist activity, PAR1-dependent Rho signaling in platelets (PAR1 [3]): full agonist
–	Bivalirudin: thrombin inhibitor (Angiomax)	–	mean arterial occlusion time [6]: 20 min
–	c1cnc2c(c1)ccc1cccnc12 [1,10-phenanthroline]	80%	–
